Test results: PMC6208296, “Redox regulation of pyruvate kinase M2 by cysteine oxidation and S-nitrosation” (Biochemical Journal, 2018)
pKd: −log10 of the molar value.

Experiments:
[1] = molecular target: M2 isoform of human pyruvate kinase, wild type (human) (UniProt P14618); assay: SEC; analytical gel filtration, Superdex 200 PC 3.2/30 in PBS-CM, room temperature; stock of ∼20 mg/ml diluted to 0.1 mg/ml and incubated 1 h without or with 1 mM DTT or 20 μM H2O2; tetramer to monomers, peak areas on a bimodal distribution
[2] = molecular target: M2 isoform of human pyruvate kinase, wild type (human) (UniProt P14618); assay: SEC; analytical gel filtration, Superdex 200 PC 3.2/30 in PBS-CM, room temperature; 0.1 mg/ml incubated 12 h (equilibrium) without or with 1 mM DTT or 20 μM H2O2; tetramer to monomers, peak areas on a bimodal distribution
[3] = molecular target: Pyruvate kinase M2 (Homo sapiens) (UniProt P14618); assay: gel filtration; settings: cited from earlier work

Chain of M2 isoform of human pyruvate kinase, wild type, P14618 1-531 (enzyme; other documents disagree on this pair) (P14618 whole entry, canonical isoform): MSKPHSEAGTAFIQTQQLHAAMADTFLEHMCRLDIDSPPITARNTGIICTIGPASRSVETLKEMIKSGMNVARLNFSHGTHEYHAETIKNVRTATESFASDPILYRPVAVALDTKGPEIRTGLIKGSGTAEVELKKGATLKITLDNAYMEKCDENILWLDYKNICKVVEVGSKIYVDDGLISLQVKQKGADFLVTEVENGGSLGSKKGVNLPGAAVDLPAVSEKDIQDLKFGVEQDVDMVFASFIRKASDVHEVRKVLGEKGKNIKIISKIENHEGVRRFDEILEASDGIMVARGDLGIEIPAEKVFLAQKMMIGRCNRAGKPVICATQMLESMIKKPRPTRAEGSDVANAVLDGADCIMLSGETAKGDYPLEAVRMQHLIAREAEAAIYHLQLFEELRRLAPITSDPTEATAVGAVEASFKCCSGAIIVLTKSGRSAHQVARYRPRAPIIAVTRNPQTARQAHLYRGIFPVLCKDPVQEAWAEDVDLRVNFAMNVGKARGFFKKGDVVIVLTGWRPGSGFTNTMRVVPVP
Chain of Pyruvate kinase M2 (P14618 2-531): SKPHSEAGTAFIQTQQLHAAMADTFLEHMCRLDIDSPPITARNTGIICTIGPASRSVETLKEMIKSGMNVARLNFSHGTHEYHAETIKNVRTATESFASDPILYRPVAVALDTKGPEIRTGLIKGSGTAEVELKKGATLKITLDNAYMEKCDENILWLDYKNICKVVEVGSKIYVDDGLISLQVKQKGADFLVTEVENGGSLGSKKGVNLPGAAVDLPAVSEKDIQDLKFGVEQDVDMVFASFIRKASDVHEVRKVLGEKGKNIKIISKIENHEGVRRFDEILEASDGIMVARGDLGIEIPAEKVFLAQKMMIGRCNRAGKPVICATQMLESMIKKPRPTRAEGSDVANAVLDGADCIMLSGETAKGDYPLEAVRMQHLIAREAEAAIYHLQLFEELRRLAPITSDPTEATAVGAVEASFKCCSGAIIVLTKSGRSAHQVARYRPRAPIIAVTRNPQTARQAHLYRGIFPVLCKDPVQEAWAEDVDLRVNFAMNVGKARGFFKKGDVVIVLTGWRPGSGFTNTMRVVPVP

Substance | percent tetramer (20 μM H2O2, 1 h) [1] [%] | percent tetramer (1 mM DTT, 1 h) [1] [%] | percent tetramer (no DTT, no H2O2, 1 h) [1] [%] | percent tetramer (20 μM H2O2, 12 h) [2] [%] | percent tetramer (1 mM DTT, 12 h) [2] [%] | percent tetramer (no DTT, no H2O2, 12 h) [2] [%] | pKd [3]
M2 isoform of human pyruvate kinase, wild type, P14618 1-531 (enzyme; other documents disagree on this pair) | 63 | 64 | 62 | 42 | 71 | 55 | –
Pyruvate kinase M2 (from UniProt P14618) | – | – | – | – | – | – | 6.05
